In this experiment the target is T1, Cks1-Skp2-Skp1 complex (GST-Skp2-Skp1-His-Cks1) (human | , UniProt Q13309 1-424; P63208 1-163; P61024 1-79).
T1 construct: Skp2, human; GST-Skp2 fusion from a dicistronic pGEX 4T1 plasmid with Skp1; Skp1, human; second cistron of the pGEX 4T1 GST-Skp2/Skp1 plasmid; Cks1, full length (1-79); The design was based on PDB 2AST, whose constructs may differ; also called Skp1-Skp2-Cks1 complex; Skp2-Skp1-Cks1 complex; source: E. coli C41; GST-Skp2-Skp1 (glutathione Sepharose, SEC) and His-Cks1 (Ni-NTA, SEC) purified, mixed …
Briefly: fluorescence polarisation; direct FP; protein serially diluted 1:2 (12 points, triplicate) and mixed with 20 nM TAMRA-labelled peptide; SEC buffer (20 mM Tris-HCl pH 7.5, 150 mM NaCl, 1 mM DTT) with 0.01 % Tween-20; 30 min at room temperature. The note with it: both partners purified. (Polarisation of emitted light reports the rotation of a fluorescent probe.)

Square brackets hold non-standard residues; d marks the D form. Ends that are not written are not given here. pT = C[C@@H](OP(=O)(O)O)[C@H](N)C(=O)O; Ahx = NCCCCCC(=O)O

Usually Kd stands for the constant that tells how readily two partners part at equilibrium. A high value points to a looser complex.

T1 sequence (Q13309 whole entry, chain 1 of 3, the tested form may be a part): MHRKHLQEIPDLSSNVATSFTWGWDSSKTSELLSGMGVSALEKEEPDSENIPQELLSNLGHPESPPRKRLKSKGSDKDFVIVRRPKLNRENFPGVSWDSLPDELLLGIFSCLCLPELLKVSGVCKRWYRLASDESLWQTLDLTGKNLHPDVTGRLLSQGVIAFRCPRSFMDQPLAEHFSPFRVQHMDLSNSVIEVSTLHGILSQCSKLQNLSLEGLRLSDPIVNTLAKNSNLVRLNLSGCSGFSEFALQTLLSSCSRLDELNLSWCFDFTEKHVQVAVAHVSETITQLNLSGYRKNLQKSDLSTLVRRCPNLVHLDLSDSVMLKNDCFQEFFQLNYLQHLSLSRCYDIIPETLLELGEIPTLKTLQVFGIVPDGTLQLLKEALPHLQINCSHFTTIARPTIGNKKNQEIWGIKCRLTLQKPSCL
T1 sequence (P63208 whole entry, chain 2 of 3, the tested form may be a part): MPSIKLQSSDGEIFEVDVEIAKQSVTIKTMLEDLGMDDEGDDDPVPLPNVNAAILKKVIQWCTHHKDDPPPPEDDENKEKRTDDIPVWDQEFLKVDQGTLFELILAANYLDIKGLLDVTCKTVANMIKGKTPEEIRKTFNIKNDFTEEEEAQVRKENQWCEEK
T1 sequence (P61024 whole entry, chain 3 of 3, the tested form may be a part): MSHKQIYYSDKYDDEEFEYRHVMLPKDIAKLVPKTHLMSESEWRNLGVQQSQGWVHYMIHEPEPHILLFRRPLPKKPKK

B1: TAMRA-labelled 10-residue phosphorylated p27 peptide (TAMRA-Ahx-AGSVEQT(phos)PKK) (peptide)
peptide: {TAMRA-Ahx}-AGSVEQ[pT]PKK
notes: p27, amino acids 181-190; also called TAMRA-labelled p27 peptide; TAMRA-labelled unconstrained p27 peptide; source: synthetic peptide
The molecule B1 registered a Kd of 2780 ± 190 nM.
